From the supplement of paper PMC9112550, “Optimization of the antimicrobial peptide Bac7 by deep mutational scanning” (BMC Biology, 2022)

Test system: Escherichia coli TOP10
Assay: shrunken log2 fold change of peptide-encoding DNA abundance (4.5 h post-induction vs induction); higher = less antimicrobial activity (less host growth inhibition)
Details: time post-induction: 4.5 h; library: site-saturation at positions 5, 18, 19, 20
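Also: peptides expressed intracellularly from a pBAD plasmid library in pooled LB shake-flask culture, induced with 0.3% L-arabinose, DNA abundance read by NGS, three biological replicates, DESeq2 with apeglm shrinkage.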

Sequence: RRIRRRPPRLPRPRPRPERMPRP
- shrunken log2 fold change: 0.222

Sequence: RRIRTRPPRLPRPRPRPEFNPRP
- shrunken log2 fold change: 0.085

Sequence: RRIRGRPPRLPRPRPRPCMTPRP
- shrunken log2 fold change: 2.89

Sequence: RRIRARPPRLPRPRPRPMIDPRP
- shrunken log2 fold change: 0.535

Sequence: RRIRPRPPRLPRPRPRPAPDPRP
- shrunken log2 fold change: 0.309

Sequence: RRIRVRPPRLPRPRPRPWNGPRP
- shrunken log2 fold change: -0.277

Sequence: RRIRTRPPRLPRPRPRPALIPRP
- shrunken log2 fold change: 0.0272

Sequence: RRIRTRPPRLPRPRPRPWLQPRP
- shrunken log2 fold change: -0.187

Sequence: RRIRNRPPRLPRPRPRPHSGPRP
- shrunken log2 fold change: -0.517

Sequence: RRIRQRPPRLPRPRPRPHRNPRP
- shrunken log2 fold change: 0.116

Sequence: RRIRHRPPRLPRPRPRPIWLPRP
- shrunken log2 fold change: -0.00879

Sequence: RRIRQRPPRLPRPRPRPLWFPRP
- shrunken log2 fold change: -0.0512

Sequence: RRIRPRPPRLPRPRPRPWSSPRP
- shrunken log2 fold change: -0.977

Sequence: RRIRYRPPRLPRPRPRPRRWPRP
- shrunken log2 fold change: 0.309

Sequence: RRIRGRPPRLPRPRPRPEKQPRP
- shrunken log2 fold change: 0.034

Sequence: RRIRIRPPRLPRPRPRPTLRPRP
- shrunken log2 fold change: 0.0906

Sequence: RRIRKRPPRLPRPRPRPPLQPRP
- shrunken log2 fold change: 0.558

Sequence: RRIRDRPPRLPRPRPRPPRDPRP
- shrunken log2 fold change: 0.771

Sequence: RRIRYRPPRLPRPRPRPAYHPRP
- shrunken log2 fold change: -0.321

Sequence: RRIRPRPPRLPRPRPRPPQTPRP
- shrunken log2 fold change: 0.362

Sequence: RRIRWRPPRLPRPRPRPVGTPRP
- shrunken log2 fold change: 0.235

Sequence: RRIRVRPPRLPRPRPRPWMLPRP
- shrunken log2 fold change: -0.2

Sequence: RRIRRRPPRLPRPRPRPWLAPRP
- shrunken log2 fold change: 0.35

Sequence: RRIRTRPPRLPRPRPRPYIYPRP
- shrunken log2 fold change: -0.706

Sequence: RRIRKRPPRLPRPRPRPCRTPRP
- shrunken log2 fold change: 0.0438

Sequence: RRIRRRPPRLPRPRPRPIITPRP
- shrunken log2 fold change: -0.253

Sequence: RRIRMRPPRLPRPRPRPHMYPRP
- shrunken log2 fold change: -0.568

Sequence: RRIRYRPPRLPRPRPRPQVIPRP
- shrunken log2 fold change: -0.0134

Sequence: RRIRSRPPRLPRPRPRPHIKPRP
- shrunken log2 fold change: -0.255

Sequence: RRIRPRPPRLPRPRPRPLTQPRP
- shrunken log2 fold change: 0.0664

Sequence: RRIRKRPPRLPRPRPRPRWCPRP
- shrunken log2 fold change: 0.251

Sequence: RRIRGRPPRLPRPRPRPRPNPRP
- shrunken log2 fold change: 0.64

Sequence: RRIRTRPPRLPRPRPRPCFHPRP
- shrunken log2 fold change: -0.638

Sequence: RRIRERPPRLPRPRPRPGWEPRP
- shrunken log2 fold change: 0.0307

Sequence: RRIRHRPPRLPRPRPRPSKHPRP
- shrunken log2 fold change: -0.177

Sequence: RRIRERPPRLPRPRPRPFILPRP
- shrunken log2 fold change: -0.784

Sequence: RRIRKRPPRLPRPRPRPTQWPRP
- shrunken log2 fold change: 0.622

Sequence: RRIRQRPPRLPRPRPRPPPDPRP
- shrunken log2 fold change: 0.701

Sequence: RRIRWRPPRLPRPRPRPTKPPRP
- shrunken log2 fold change: 0.184

Sequence: RRIRFRPPRLPRPRPRPKEVPRP
- shrunken log2 fold change: 0.0322

Sequence: RRIRFRPPRLPRPRPRPVFLPRP
- shrunken log2 fold change: -0.327

Sequence: RRIRRRPPRLPRPRPRPNYKPRP
- shrunken log2 fold change: -0.232

Sequence: RRIRFRPPRLPRPRPRPCEVPRP
- shrunken log2 fold change: -0.0179

Sequence: RRIRWRPPRLPRPRPRPYVAPRP
- shrunken log2 fold change: -0.492

Sequence: RRIRARPPRLPRPRPRPSEQPRP
- shrunken log2 fold change: 0.248

Sequence: RRIRVRPPRLPRPRPRPKWHPRP
- shrunken log2 fold change: -0.123

Sequence: RRIRERPPRLPRPRPRPLREPRP
- shrunken log2 fold change: 0.385

Sequence: RRIRWRPPRLPRPRPRPYPGPRP
- shrunken log2 fold change: -0.0967

Sequence: RRIRERPPRLPRPRPRPDGEPRP
- shrunken log2 fold change: -0.115

Sequence: RRIRWRPPRLPRPRPRPWEIPRP
- shrunken log2 fold change: 0.124

Sequence: RRIRHRPPRLPRPRPRPGCKPRP
- shrunken log2 fold change: 0.229

Sequence: RRIRNRPPRLPRPRPRPRIDPRP
- shrunken log2 fold change: -0.0916

Sequence: RRIRSRPPRLPRPRPRPTLSPRP
- shrunken log2 fold change: 0.0887

Sequence: RRIRGRPPRLPRPRPRPAMWPRP
- shrunken log2 fold change: 1.02

Sequence: RRIRMRPPRLPRPRPRPLVVPRP
- shrunken log2 fold change: 0.0644

Sequence: RRIRPRPPRLPRPRPRPNKFPRP
- shrunken log2 fold change: -0.173

Sequence: RRIRSRPPRLPRPRPRPCDMPRP
- shrunken log2 fold change: -0.184

Sequence: RRIRMRPPRLPRPRPRPIMWPRP
- shrunken log2 fold change: -0.042

Sequence: RRIRVRPPRLPRPRPRPVASPRP
- shrunken log2 fold change: 0.187

Sequence: RRIRKRPPRLPRPRPRPDVAPRP
- shrunken log2 fold change: 0.0256

Sequence: RRIRDRPPRLPRPRPRPDRTPRP
- shrunken log2 fold change: 0.0519

Sequence: RRIRLRPPRLPRPRPRPIGCPRP
- shrunken log2 fold change: -0.0407

Sequence: RRIRCRPPRLPRPRPRPFSVPRP
- shrunken log2 fold change: -0.236

Sequence: RRIRTRPPRLPRPRPRPSFQPRP
- shrunken log2 fold change: -0.427

Sequence: RRIRGRPPRLPRPRPRPDVVPRP
- shrunken log2 fold change: 0.424

Sequence: RRIRQRPPRLPRPRPRPIMFPRP
- shrunken log2 fold change: -0.144

Sequence: RRIRFRPPRLPRPRPRPQEQPRP
- shrunken log2 fold change: -0.0102

Sequence: RRIRPRPPRLPRPRPRPYPAPRP
- shrunken log2 fold change: -0.582

Sequence: RRIRIRPPRLPRPRPRPIINPRP
- shrunken log2 fold change: -1.15

Sequence: RRIRCRPPRLPRPRPRPTTIPRP
- shrunken log2 fold change: -0.492

Sequence: RRIRQRPPRLPRPRPRPQCHPRP
- shrunken log2 fold change: -0.0344

Sequence: RRIRHRPPRLPRPRPRPQRVPRP
- shrunken log2 fold change: -0.139

Sequence: RRIRERPPRLPRPRPRPHPAPRP
- shrunken log2 fold change: 0.039

Sequence: RRIRDRPPRLPRPRPRPIVAPRP
- shrunken log2 fold change: -0.0201

Sequence: RRIRNRPPRLPRPRPRPCIIPRP
- shrunken log2 fold change: -0.0176

Sequence: RRIRFRPPRLPRPRPRPYVEPRP
- shrunken log2 fold change: -0.315

Sequence: RRIRVRPPRLPRPRPRPASQPRP
- shrunken log2 fold change: 0.128

Sequence: RRIRSRPPRLPRPRPRPWFGPRP
- shrunken log2 fold change: -0.124

Sequence: RRIRRRPPRLPRPRPRPKHWPRP
- shrunken log2 fold change: 0.334

Sequence: RRIRNRPPRLPRPRPRPFSKPRP
- shrunken log2 fold change: -0.303

Sequence: RRIRWRPPRLPRPRPRPKAQPRP
- shrunken log2 fold change: 0.0185

Sequence: RRIRYRPPRLPRPRPRPTKSPRP
- shrunken log2 fold change: -0.517

Sequence: RRIRCRPPRLPRPRPRPGWLPRP
- shrunken log2 fold change: 0.801

Sequence: RRIRNRPPRLPRPRPRPTPVPRP
- shrunken log2 fold change: 0.425

Sequence: RRIRVRPPRLPRPRPRPAWHPRP
- shrunken log2 fold change: 0.657

Sequence: RRIRRRPPRLPRPRPRPAARPRP
- shrunken log2 fold change: 0.287

Sequence: RRIRHRPPRLPRPRPRPMPRPRP
- shrunken log2 fold change: 0.069

Sequence: RRIRWRPPRLPRPRPRPCYAPRP
- shrunken log2 fold change: -0.345

Sequence: RRIRPRPPRLPRPRPRPMLNPRP
- shrunken log2 fold change: -0.164

Sequence: RRIRMRPPRLPRPRPRPNICPRP
- shrunken log2 fold change: 0.021

Sequence: RRIRWRPPRLPRPRPRPVDRPRP
- shrunken log2 fold change: -0.0331

Sequence: RRIRIRPPRLPRPRPRPRMKPRP
- shrunken log2 fold change: -0.0587

Sequence: RRIRRRPPRLPRPRPRPPLYPRP
- shrunken log2 fold change: 0.851

Sequence: RRIRQRPPRLPRPRPRPVYQPRP
- shrunken log2 fold change: -0.022

Sequence: RRIRVRPPRLPRPRPRPSHMPRP
- shrunken log2 fold change: -0.585

Sequence: RRIRARPPRLPRPRPRPDKYPRP
- shrunken log2 fold change: 1.5

Sequence: RRIRWRPPRLPRPRPRPEAKPRP
- shrunken log2 fold change: 0.0319

Sequence: RRIRLRPPRLPRPRPRPPEMPRP
- shrunken log2 fold change: 1.71

Sequence: RRIRDRPPRLPRPRPRPRHHPRP
- shrunken log2 fold change: -0.043

Sequence: RRIRCRPPRLPRPRPRPFWRPRP
- shrunken log2 fold change: 0.0785

Sequence: RRIRARPPRLPRPRPRPRWQPRP
- shrunken log2 fold change: 0.361

Sequence: RRIRHRPPRLPRPRPRPPCMPRP
- shrunken log2 fold change: -0.245

Sequence: RRIRKRPPRLPRPRPRPGDGPRP
- shrunken log2 fold change: 3.56

Sequence: RRIRPRPPRLPRPRPRPHISPRP
- shrunken log2 fold change: -0.422

Sequence: RRIRQRPPRLPRPRPRPNCDPRP
- shrunken log2 fold change: 0.0233

Sequence: RRIRMRPPRLPRPRPRPMGEPRP
- shrunken log2 fold change: 0.792

Sequence: RRIRFRPPRLPRPRPRPSHMPRP
- shrunken log2 fold change: -0.255

Sequence: RRIRVRPPRLPRPRPRPMRLPRP
- shrunken log2 fold change: 0.617

Sequence: RRIRQRPPRLPRPRPRPGAQPRP
- shrunken log2 fold change: 0.528
